From patent publication US20210246166A1 (Bayer, published 2021)
Bridge positions count the residues as written; N and C are the ends. Square brackets hold non-standard residues; d marks the D form. Ends that are not written are not given here. Oic = O=C(O)[C@@H]1C[C@@H]2CCCC[C@@H]2N1; tBuAla = CC(C)(C)C[C@H](N)C(=O)O; Abu(4-CN) = N#CCC[C@H](N)C(=O)O; Pen = CC(C)(S)[C@H](N)C(=O)O; Phg = N[C@H](C(=O)O)c1ccccc1; Tranexamic = tranexamic acid; NMeC = CN[C@@H](CS)C(=O)O; PEG2 = NCCOCCOCCC(=O)O; Sar = CNCC(=O)O

T1: recombinant human MASP1 active protease (amino acids 297-699, C-terminal His Tag) (human, UniProt P48740 297-699)
T1 sequence: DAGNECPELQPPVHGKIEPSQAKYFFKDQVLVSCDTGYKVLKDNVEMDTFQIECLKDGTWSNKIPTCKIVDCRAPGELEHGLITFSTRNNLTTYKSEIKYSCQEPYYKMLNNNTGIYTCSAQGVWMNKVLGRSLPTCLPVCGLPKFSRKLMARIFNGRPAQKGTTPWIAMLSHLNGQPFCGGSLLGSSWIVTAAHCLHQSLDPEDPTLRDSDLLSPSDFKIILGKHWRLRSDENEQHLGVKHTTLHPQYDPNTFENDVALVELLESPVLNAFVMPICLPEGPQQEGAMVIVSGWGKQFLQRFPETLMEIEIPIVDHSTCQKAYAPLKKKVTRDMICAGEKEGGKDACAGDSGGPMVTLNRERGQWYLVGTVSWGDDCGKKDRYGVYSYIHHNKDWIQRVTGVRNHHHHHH


Columns and labels:
[1] = biological target: T1, recombinant human MASP1 active protease …; assay: cell-based or functional assay
[2] = biological target: recombinant human MASP2 active protease (amino acids 297-686, C-terminal His Tag) (human, UniProt O00187 297-686); assay: cell-based or functional assay
Sequence of recombinant human MASP2 active protease (amino acids 297-686, C-terminal His Tag) (O00187 other isoform, or with tags, fused parts or gaps limits assumed): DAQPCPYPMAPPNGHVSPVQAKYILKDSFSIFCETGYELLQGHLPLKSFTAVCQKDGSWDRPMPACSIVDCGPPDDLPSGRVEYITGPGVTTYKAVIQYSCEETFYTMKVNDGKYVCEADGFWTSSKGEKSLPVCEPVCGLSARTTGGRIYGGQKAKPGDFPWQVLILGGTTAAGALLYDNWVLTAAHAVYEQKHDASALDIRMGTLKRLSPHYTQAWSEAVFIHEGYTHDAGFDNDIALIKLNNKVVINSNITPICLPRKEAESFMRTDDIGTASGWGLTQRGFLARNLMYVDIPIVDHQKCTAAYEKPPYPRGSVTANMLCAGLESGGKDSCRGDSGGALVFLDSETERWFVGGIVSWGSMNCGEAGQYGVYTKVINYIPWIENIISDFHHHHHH

human MASP1 IC50 [1] [nM]	human MASP2 IC50 [2] [nM]	Binder
22	610	[Sar]ICSRSLPPICIPD-OH (disulfide 3-11; also: HCl salt) [Example 318: ((N-Me)G)-IC+SRSLPPIC+IPD-OH (HCl- Salt)]
22	18	[Tranexamic]ICSRS[tBuAla]PPI[NMeC]IPD-NH2 (disulfide 3-11) [Example 319: (Tranexamic)-IC+SRS-((tBu)A)-PPI-((N-Me)C)+IPD-NH2]
22	190	[PEG2]AICSRS[tBuAla]PPI[Pen]IPD-NH2 (disulfide 4-12; N-terminus assumed; SMILES CC[C@H](C)[C@H](NC(=O)[C@H](C)NC(=O)CCOCCOCCN)C(=O)N[C@H]1CSSC(C)(C)[C@@H](C(=O)N[C@H](C(=O)N2CCC[C@H]2C(=O)N[C@@H](CC(=O)O)C(N)=O)[C@@H](C)CC)NC(=O)[C@H]([C@@H](C)CC)NC(=O)[C@@H]2CCCN2C(=O)[C@@H]2CCCN2C(=O)[C@H](CC(C)(C)C)NC(=O)[C@H](CO)NC(=O)[C@H](CCCNC(=N)N)NC(=O)[C@H](CO)NC1=O) [Example 320: (PEG1(10 atoms))-AIC+SRS-((tBu)A)-PPI-(Pen)+IPD-NH2]
22	1800	[Sar]ICSRS[Abu(4-CN)]PPI[Pen]IPD-NH2 (disulfide 3-11; N-terminus assumed; SMILES CC[C@H](C)[C@H](NC(=O)CNC)C(=O)N[C@H]1CSSC(C)(C)[C@@H](C(=O)N[C@H](C(=O)N2CCC[C@H]2C(=O)N[C@@H](CC(=O)O)C(N)=O)[C@@H](C)CC)NC(=O)[C@H]([C@@H](C)CC)NC(=O)[C@@H]2CCCN2C(=O)[C@@H]2CCCN2C(=O)[C@H](CCC#N)NC(=O)[C@H](CO)NC(=O)[C@H](CCCNC(=N)N)NC(=O)[C@H](CO)NC1=O) [Example 321: ((N-Me)G)-IC+SRS-(Cnba)-PPI-(Pen)+IPD-NH2]
22	150	[tBuAla]GICSRSLP[Oic]I[Pen]IP-NH2 (disulfide 4-12; N-terminus assumed; SMILES CC[C@H](C)[C@H](NC(=O)CNC(=O)[C@@H](N)CC(C)(C)C)C(=O)N[C@H]1CSSC(C)(C)[C@@H](C(=O)N[C@H](C(=O)N2CCC[C@H]2C(N)=O)[C@@H](C)CC)NC(=O)[C@H]([C@@H](C)CC)NC(=O)[C@@H]2C[C@@H]3CCCC[C@@H]3N2C(=O)[C@@H]2CCCN2C(=O)[C@H](CC(C)C)NC(=O)[C@H](CO)NC(=O)[C@H](CCCNC(=N)N)NC(=O)[C@H](CO)NC1=O) [Example 322: ((tBu)A)-GIC+SRSLP-(Oic)-I-(Pen)+IP-NH2]
6.96	560	GICSRSLP[Oic]ICIPD-OH (disulfide 3-11; N-terminus assumed; SMILES CC[C@H](C)[C@H](NC(=O)CN)C(=O)N[C@H]1CSSC[C@@H](C(=O)N[C@H](C(=O)N2CCC[C@H]2C(=O)N[C@@H](CC(=O)O)C(=O)O)[C@@H](C)CC)NC(=O)[C@H]([C@@H](C)CC)NC(=O)[C@@H]2C[C@@H]3CCCC[C@@H]3N2C(=O)[C@@H]2CCCN2C(=O)[C@H](CC(C)C)NC(=O)[C@H](CO)NC(=O)[C@H](CCCNC(=N)N)NC(=O)[C@H](CO)NC1=O) [Example 323: GIC+SRSLP-(Oic)-IC+IPD-OH]
23	72	[Sar]ICSRSLP[(1R,3S,5R)‑2‑Azabicyclo(3.1.0)hexane‑3‑carboxylic acid]ICIPD-OH (disulfide 3-11) [Example 324: ((N-Me)G)-IC+SRSLP-((1R,3S,5R)-2-Azabicyclo[3.1.0]hexane-3-carboxylic acid)-IC+IPD-OH]
23	450	[Sar]ICSRSLPPIC[Phg]PD-OH (disulfide 3-11; N-terminus assumed; SMILES CC[C@H](C)[C@H](NC(=O)CNC)C(=O)N[C@H]1CSSC[C@@H](C(=O)N[C@H](C(=O)N2CCC[C@H]2C(=O)N[C@@H](CC(=O)O)C(=O)O)c2ccccc2)NC(=O)[C@H]([C@@H](C)CC)NC(=O)[C@@H]2CCCN2C(=O)[C@@H]2CCCN2C(=O)[C@H](CC(C)C)NC(=O)[C@H](CO)NC(=O)[C@H](CCCNC(=N)N)NC(=O)[C@H](CO)NC1=O) [Example 325: ((N-Me)G)-IC+SRSLPPIC+(Phg)-PD-OH]
